# Measurements taken from the RNAGym collection of RNA variant scans (doi:10.1073/pnas.2313332121).
# Fewer inactive variants are shown than the library holds.
# B1: TPR 5TU (parent)
# chain: GGAUCUUCUCGAUCUAACAAAAAAGACAAAUCUGCCACAAAGCUUGAGAGCAUCUUCGGAUGCAGAGGCGGCAGCCUUCGGUGGCGCGAUAGCGCCAACGUUCUCAACUAUGACACGCAAAACGCGUGCUCCGUUGAAUGGAGUUUAUCAUG
# Variants of: B1
# Experiment: polymerase ribozyme fitness, log enrichment relative to wild type (log ratio); higher = more active; in vitro selection for triplet polymerase activity
# Summary of the method: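 Genotype fitness is the logarithm of its enrichment divided by wild-type enrichment, using inverse-variance-weighted averages of replicates. That logarithm is base 2. Enrichment was measured by Illumina sequencing of input and output libraries from one triplicate in vitro selection round, with frozen incubation at −7 °C, on PCR-built, transcribed mutant libraries of each subunit of a heterodimeric triplet polymerase ribozyme, retaining genotypes with ≥10 input reads and ≥1 read per output.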
row,Variant,polymerase ribozyme fitness (log ratio)
1,GGAUCUUCUCGAUCUAACAAAAAAGACAAAUCUGCCACAAAGCUUAAGAGCAUAUUCGGAUGCAGAGGCGGCAGCUUUCGGUGGCGCGAUAGCGCCAACGUUCUCAACUAUGACACGCAAAACGCGUGCUCCGUUGAAUGGAAUUUAUCAUG [G46A C54A C76U G143A],≤ -4.2
2,GGAUCUUCUCGAUCUAACAAAAAAGACAAAUCUGCCACAAAGCUGGAGAGCAUCUUCGGAUGCAGAGGCGGCAGCCUUCGGUGUCGCGAUAGCGCCAACGUUCUCAACUAUGACACGCAAAACGCGUGCUCCGUUGAAUGGAGUUUAUCAUG [U45G G84U],-1.97
3,GGAUCUUCUCGAUCUAACAAAAAAGACAAAUCUGCCACAAAGCUUAAGAGCAUCUUCGGAUGCAGAGGCGGCAGCAUUCGGUGGCGCGAUAGCGCUAACGUUCUCAACUAUGACACGCAAAACGCGUGCUCCGUUGAAUGCAGUUUAUCAUG [G46A C76A C96U G141C],≤ -4.2
4,GGAUCUUCUCGAUCUAACAAAAAAGACAAAUCUGCCACAAAGCUUAAGAGCAUCUUCGGAUGGAGACGCGGCAGCCUUCGGUGGUGCGAUAGCGCCAACGUUCUCAACUAUGACACGCAAAACGCGUGCUCCGUUGAAUGGAGUUUAUCAUG [G46A C63G G67C C85U],≤ -4.2
5,GGAUCUUCUCGAUCUAACAAAAAAGACAAAUCUGCCACAAAGCUGGAGAGCAACUCCGGAUGCAGAGGCGGCAGCCUUCGGUGACGCGAUAGCGCCAACGUUCUCAACUAUGACACGCAAAACGUGUGCUCCGUUGGAUUGAGUUUAUAAUG [U45G U53A U56C G84A C125U A137G G140U C149A],≤ -4.2
6,GGAUCUUCUCGAUCUAACAAAAAAGACAAAUCUGCCACAAAGCUUAAGAGCAUCUUCGGAUGCAGAGGCGGCAGCAUUCGGUGGCUCGAUAGCGCCAACGUUCUCAACUAUGACACGCAAUACGCGUGCUCCGUUGAAUGGAGGUUAUCAUG [G46A C76A G86U A121U U144G],≤ -4.2
7,GGAUCUUCUCGAUCUAACAAAAAAGACAAAUCUGCCACAAAGCUUAAGAGCAUCUUCGGAUGCAGAGGCGGCAGCCUUCGGUGGCGCGAUAGCGCCAAAGUUCUCAACUAUGAAACGCAAAACGCGUGAUCCGUUGAAUGAAGUUUAUCAUG [G46A C99A C114A C129A G141A],≤ -4.2
8,GGAUCUUCUCGAUCUAACAAAAAAGACAAAUCUGCCACAAAGCUUAAGAGCAUCUUCGGAUGCAGAGGCGGCAGCCUUCGGUGGCGCGAUAGCGCCAACGUUCUCAACUAUGACACGCAAAACGCGUGUUCCGUUGAAUGGAGUUUAUCAUG [G46A C129U],-3.61
9,GGAUCUUCUCGAUCUAACAAAAAAGACAAAUCUGCCACAAAGCUUAAGAGCAUCUUCGGAUGCAGAGGCGGCAGCCUUCGGUGGAGCGAUAGCGCCAACGUUCUCAACUAUGACACGCAAAACGCGUGCUCCGUUGAAUGGAGUUUAUCCUG [G46A C85A A150C],≤ -4.2
10,GGAUCUUCUCGAUCUAACAAAAAAGACAAAUCUGCCACAAAGCUGGAGAGCAUCUUCGGAUGCAGAGGCGGCAGCCUUCGGUGGCGCAAUAGCGCCAACGUUCUCAACUAUGACACGCAAAACGCGUGCUCCGUUGAAUGGAGUUUAUCAUG [U45G G88A],-4.02
11,GGAUCUUCUCGAUCUAACAAAAAAGACAAAUCUGCCACAAAGCUUAAGAGGAUCUACGGAUGCAGAGGCGGCAGCCUUCGGUGGCGCUAUAGCGCCAACGUUCUCAACUAUGACACGCAAAACGCGUGCUCCGUUGAAUGAAGUUUAUCAUG [G46A C51G U56A G88U G141A],≤ -4.2
12,GGAUCUUCUCGAUCUAACAAAAAAGACAAAUCUGCCACAAAGCUUAAGAGCAUCUUCGGAUGCAGAGGCGGCAGCCUUCGGUGGGGCGAUAGCGCCAACGUUCUCCACUAUGACACGCAAAACGAGUGCUCCGUUGAAUGGAGUUUAUCAUG [G46A C85G A106C C125A],≤ -4.2
13,GGAUCUUCUCGAUCUAACAAAAAAGACAAAUCUGCCACAAAGCUGGAGAGCAUCUACGGAUGCAGAGGCGGCAGCCUUCGGUGGCGCGAUAGCGCCAACGUUCUCAACUAUGACACGCAAAACGCGUGCUCCGUUGAAUGGAGUUUAUCAUG [U45G U56A],0.0147
14,GGAUCUUCUCGAUCUAACAAAAAAGACAAAUCUGCCACAAAGCUGGAGAGCAUCUUCGGAUGCAGAGGCGGCAGCCUUCGGUGGCGCGAUAGCGCCAACGUUCUCAACUAUGACACGCAAAACGCGUUCUCCGUUGAAUGGAGUUUAUCAUG [U45G G128U],-3.86
15,GGAUCUUCUCGAUCUAACAAAAAAGACAAAUCUGCCACAAAGCUGGAGAGCAUCUUCGGAUGCAGAGGCGGCAGCCUUCGGUGGCGCGAUAGCGCCAACGUUCUCAACUAUGACACGCAAAACGCGUGCUCCGUUGAAUGGAGUUUAUCAUA [U45G G152A],-1.18
16,GGAUCUUCUCGAUCUAACAAAAAAGACAAAUCUGCCACAAAGCUUAAGAGCAUCUUCGGAUGCAGAGGCGGCAGCCUUCGGUGGCGCGAUAGUGCCAACGUUCUCAACUAUGACACGCAAAACGCGUGCUCCGUUGAAUGGAGUUUAUCAUG [G46A C93U],-1.21
17,GGAUCUUCUCGAUCUAACAAAAAAGACAAAUCUGCCACAAAGCUGGAGAGCAACUUCGGAUGCAGAGGCGGCAGACUUCGGUGGCGCGAUAGAGCCAACGUUCUCAACUAUGGCACGCAAAACGCGUGCUCCGUUGAAUGGAGUUUAUCAUG [U45G U53A C75A C93A A113G],≤ -4.2
18,GGAUCUUCUCGAUCUAACAAAAAAGACAAAUCUGCCACAAAGCUUAAGCGCAUCUUCGGAUGCAGAGGCGGCAGCCUUCGGUGGCGCGAUAGCGCCAACGGUCUCAACUAUGACACGCAAAACGCGUGCUCCGUUGAAUGGAGUUUAUCAUG [G46A A49C U101G],≤ -4.2
19,GGAUCUUCUCGAUCUAACAAAAAAGACAAAUCUGCCACAAAGCUUAAGACCAUCUACGGAUGCAGAGGCGGCAGCCUUCGGUUGCGCGAUAGCGCCAACGUUCUCAACUAUGACACGCAAAACGCGUGCUCCGUUGAAUGGAGUUUCUCAUG [G46A G50C U56A G83U A147C],≤ -4.2

row,Variant,polymerase ribozyme fitness (log ratio)
1,GGAUCUUCUCGAUCUAACAAAAAAGACAAAUCUGCCACAAAGCUGGAGAGCAUCUUCGGAUGCAGAGGCGGCAGCCUUCGGUGUCGCGAUAGCGCCAACGUUCUCAACUAUGUCACGCAAAACGCGUGCUCCGUUGAAUGGAGUUUAUCAUG [U45G G84U A113U],-4.1
2,GGAUCUUCUCGAUCUAACAAAAAAGACAAAUCUGCCACAAAGCUGGAGAGCAUCGUCGGAUGCAGAGGCGGCAGCCUUCGGUGGCGCGAUCGCGCCAACGAUCUCAGCUAUGACACGCAAAACGCGUGCUCCGUUGAAUGGAGUUUAUCAUG [U45G U55G A91C U101A A107G],≤ -4.2
3,GGAUCUUCUCGAUCUAACAAAAAAGACAAAUCUGCCACAAAGCUGGAGAGCAUCUUCGGAGGCAGAGGCGGCAGCCUUCGGUGGCGGCAUAGCGCCAACGUUCUCAACUAUGACACGGAAAACGCGUGGUCCGUUGAAUGAAGUUUAUCAUG [U45G U61G C87G G88C C118G C129G G141A],≤ -4.2
4,GGAUCUUCUCGAUCUAACAAAAAAGACAAAUCUGCCACAAAGCUUAAGAGCAUCUUCAGAUGCAGAGGCGGCAGCCUUCGGUCGCGCGAUAGCGCCAACGUUCUCAACUAUGACACGCAAAACGCGUGCUCCGUUGAAUGGAGUUUAUCAUG [G46A G58A G83C],-1.17
5,GGAUCUUCUCGAUCUAACAAAAAAGACAAAUCUGCCACAAAGCUUAAGAGCAUGUUCGGAUGCAGAGGCGGCAGCCUUCGGUGGCUCGAUAGCGCCAACGUUCUCAACUAUGACACACGAAACGCGUGCUCCGUUGGAUGCAUUUUAUCAUG [G46A C54G G86U G117A A119G A137G G141C G143U],≤ -4.2
6,GGAUCUUCUCGAUCUAACAAAAAAGACAAAUCUGCCACAAAGCUUAAGAGCAUCUUCGGAUGCAGAGGCGGCAGCCUUCGGUGGCGCGAUAGCGCCCACGUUGUCAACUAUGACACGCAAAAAGCGUGCUCCGUUGAAUGCAGUUUCUAAUG [G46A A97C C103G C123A G141C A147C C149A],≤ -4.2
7,GGAUCUUCUCGAUCUAACAAAAAAGACAAAUCUGCCACAAAGCUGGAGAGCAUCUUCGGAUGCAGAGGCGGCAGCCUUCGGUGGCUAGAUAGCGCCAACGUUCUCAACUAUGACACGCAAAACGCGUGCUCCGUUGAAUGGAGUUUAUCAUG [U45G G86U C87A],≤ -4.2
8,GGAUCUUCUCGAUCUAACAAAAAAGACAAAUCUGCCACAAAGCUUAAGAGCGUCUUCGGAUGCAGAGGCGGCAGCCUUCGGUGGAGCGAUAGCGCCAACGUUCUCAACUAUGACACGCAAAACGCGUGCUCCGUUGAAUGGAGUUUAUCAUG [G46A A52G C85A],-2.54
9,GGAUCUUCUCGAUCUAACAAAAAAGACAAAUCUGCCACAAAGCUUAAGAGCAUCUUCGGAUGCAGAGGCGGCAGCCUUCGGUGGCGCGAUAGCGCUAACGAUCUCAACUAUGACACGCAAAACGCGUGCUCCGUUGAAUGGAGUUUAUCAUG [G46A C96U U101A],-2.59
10,GGAUCUUCUCGAUCUAACAAAAAAGACAAAUCUGCCACAAAGCUGGAGAGCAUCUACGGAUGCAGAGGAGGCAGCCUUCGGUGGCGCGAUAGCGCAAACGUUCUCAACUAUGACACGCAAAACGCGUGCUUCGUUUAAUGGAGUUUAUCAUG [U45G U56A C69A C96A C131U G136U],-3.1
11,GGAUCUUCUCGAUCUAACAAAAAAGACAAAUCUGCCACAAAGCUUAAGAGCAUCUUCGGAUGCAGAGGAGGCAGCCUUCGGUGGCGCGAUAGCGCCAACGUUCUCAACUAUGACACGCAAAACGCGUGCUCCGUUGAAUGGAGUUUAUCAUG [G46A C69A],-3.61
12,GGAUCUUCUCGAUCUAACAAAAAAGACAAAUCUGCCACAAAGCUUAGAACCAUCUUCGGAUGCAGAGGCGGCAGCCUUCGGUGGCGCGAUAGCGCCAACGUUCUCAACUAUGACACGCAAAACGCGUGCUCCGUUAAAUGGAGUUUAUCAUG [G46A A47G G48A G50C G136A],≤ -4.2
13,GGAUCUUCUCGAUCUAACAAAAAAGACAAAUCUGCCACAAAGCUGGAGAGCAUCUUCGGAUGCAGAGGCGGCAGCCUUCGGUGGCGCGAUAUCGCCAACGUUAACAACUAUGACACGCAAAACGCGUGCUCCGUUGAAUGGAGUUUAUCAUG [U45G G92U C103A U104A],≤ -4.2
14,GGAUCUUCUCGAUCUAACAAAAAAGACAAAUCUGCCACAAAGCUUAAGAGCAUCUUCGGAUGCAGAGGCGGCAGCCUUCGGUGGCGCGAUAGCGCCAAUGUUCUCAACUAUGACACGCAAAACGCGUGCUCCGUUGAAUGAAGUUUAUCAUG [G46A C99U G141A],≤ -4.2
15,GGAUCUUCUCGAUCUAACAAAAAAGACAAAUCUGCCACAAAGCUUAAGAGCAUCUUCGGAUGCAGAGGCGGCAGCCUUCGGUGGAGCGAUAGCGCCAACGUUCUCAACUAUGACACGCAAAACGCGUGCUCCGUUGAAUGGAGUUUAUCAUG [G46A C85A],-2.16
16,GGAUCUUCUCGAUCUAACAAAAAAGACAAAUCUGCCACAAAGCUUAAGAGCAUCUUCGGAUGCAGAGGCGGCAGCCUUCGGUGGCGUGCUAGCACCAACGUUCUCAACUAUGCCACGCAAAACGCGUGCUCCGUUGAAUGGAGUUUAUCAUG [G46A C87U A89C G94A A113C],≤ -4.2
17,GGAUCUUCUCGAUCUAACAAAAAAGACAAAUCUGCCACAAAGCUUAAGAACAUCUUUGGGUGCAGAGACGGCAGCCUUCGGUAGCGCGAUAGCUCCAACGUUCUCAACUAUGACACGCAAAACGCGUGCUCCGUUGAAUGCAGUUUAUCAUG [G46A G50A C57U A60G G68A G83A G94U G141C],≤ -4.2
18,GGAUCUUCUCGAUCUAACAAAAAAGACAAAUCUGCCACAAAGCUUAAGAGCAUGUUCGGAUGCAGAGGCGGCAGCCUUCGGUGGCGCGAUAGCGUCAACGUUCUCAACUAUGACACGCAAAACGCGUGCUCCGUUGAAUGGAGUUUAUCAUG [G46A C54G C95U],-2.17
19,GGAUCUUCUCGAUCUAACAAAAAAGACAAAUCUGCCACAAAGCUUAAGAGCAUCUUCGGAUGCAGAGGCGGCAGCCUUCGGUGGAGCGAUAGCGCCAACGUUCUCAACUAUGACACGCAAAACGCGUGCUCCGUUUAAUUGGGUUUAUCAUG [G46A C85A G136U G140U A142G],≤ -4.2
